# Results reported in the nanobody polyreactivity screen of Harvey et al. (2022).
# Experiment: yeast display, Sf9 membrane polyspecificity reagent, FACS + sequencing; frameworks hold sequencing errors
# Method in brief: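 A nanobody's polyreactivity label depends on the gate it was sorted from. Yeast display cells were stained with 10% biotinylated, detergent-solubilized Sf9 membrane reagent for 1 hour at 4 °C, enriched on streptavidin microbeads and sorted by FACS. The low and high (top ~1%) gates were set on anti-HA fluorescence for expression and streptavidin fluorescence for reagent binding.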
row,Sequence,polyreactivity (PSR sort gate)
1,QVQLVESGGGLVQAGGSLRLSCAASGSIFSYYVMGWYRQAPGKERELVAAISYSGGRTYYADSVKGRFTISRDNAKNTVYLQMNSLKQEDTAVYYCARRSYVYPYGYDYWGQGTQVTVSS,high polyreactivity
2,QVQLVESGGGLVQAGGSLRLSCAASGSIFSYYVMGWYRQAPGKERELVAAITSSGGSTYYADSVKGRFTISRDNAKNTVYLQMNSLKPEDTAVYYCAAYQRSQYRSYPGYEYWGQGTQVTVSS,high polyreactivity
3,QVQLVESGGGLVQAGGSLRLSCAASGSIFTDNAMGWYRQAPGKERELVAAITGRGGNTYYADSVKGRFPISRDIAKNPVYLQMNSLKPEDTAVYYCAARIFRTRKPLGYWGQGTQVTVSS,high polyreactivity
4,QVQLVESGGGLVQAGGSLRLSCAASGSIFTDNSMGWYRQAPGKERELVAAIDSVGSTYYADSVKGRFTISRDNAKNTVYLQMNSLKPEDTAVYYCAADLYFPYESYYWGQGTQVTVSS,low polyreactivity
5,QVQLVESGGGLVQAGGSLRLSCAASGSIFTDYTMGWSRQAPGKERELVAAISWIGDSTDYADSVKGRFTISRDNAKNTVYLQMNSLKPEDTAVYYCAKSRAGRYNDYDYWGQGTQVTVSS,low polyreactivity
6,QVQLVESGGGLVQAGGSLRLSCAASGSIFTENAMGWYRQAPGKERELVAAIRWDDGNTYYADSVKGRFTISRDNAKNTVYLQMNSLKTEDTAVYYCNADKWSSTDDWLYDYWGQGTQVTVSS,low polyreactivity
7,QVQLVESGGGLVQAGGSLRLSCAASGSIFTFYAMGWYRQAPGKERELVAAISSGGDTYYADSVKGRFTISRDNAKNTVYLQMNSLKAEDTAVYYCAADWRGSYLYGYYYWGQGTQVTVSS,low polyreactivity
8,QVQLVESGGGLVQAGGSLRLSCAASGSIFTFYAMGWYRQAPGKERELVAAITTIGGRTYYADSVKGRFTISRDNAKNTVYLQMNSLKPEDTAVYYCAAGYRAWEPYGHYGYWGQGTQVTVSS,high polyreactivity
9,QVQLVESGGGLVQAGGSLRLSCAASGSIFTFYAMGWYRQAPGKERELVARITNVGNTNYADSVKGRFTISRDNAKNTVYLQMNSLKPEDTAVYYCAARWYWGWTRGDYWGQGTQVTVSS,high polyreactivity
10,QVQLVESGGGLVQAGGSLRLSCAASGSIFTFYAMGWYRQAPGKEREVVARITNGGNTNYADSGKGRFTISRDNAKNTVYLQMNSLKPEDTEVYYCAARWYWGWTRGDYWGQRTQVTVSS,high polyreactivity
11,QVQLVESGGGLVQAGGSLRLSCAASGSIFTGNAMGWYRPAPGKERELVAAISSSGGSTYYADSVKGRFTISRDNSKNTVYLQMNSLKPEDTAVYYSAAYNYFLQYDYWGHGTQVTVSS,low polyreactivity
12,QVQLVESGGGLVQAGGSLRLSCAASGSIFTGNAMGWYRQAPGKERELVAAITQRGGRTYYADSVKGRFTISRDNAKNTVYLQMNSLKPKIPAVYYCNAKWTTLFDYWGQGTQVTVSS,high polyreactivity
13,QVQLVESGGGLVQAGGSLRLSCAASGSIFTGYAMGWYRQAPGKERELVAAISASGTRTYYADSVKGRFTISRDNAKNTVYLQMNSLKPEDTAVYYCARDSLQVFYPYASDDYWGQGTQVTVSS,low polyreactivity
14,QVQLVESGGGLVQAGGSLRLSCAASGSIFTGYAMGWYRQAPGKERELVAAISNSGTATYYADSVKGRFTISRDNAKNTVYLQMNSLKPEDSAVYYCNTVGHRWLSDDDYWGQGTQVTVSS,low polyreactivity
15,QVQLVESGGGLVQAGGSLRLSCAASGSIFTGYAMGWYRQAPGKERELVAAISRSSGSTYYADSVKGRFTISRDNAKNTVYLQMNSLIPEDTAVYYCNAYSKYRSGRLYWMGYWGQGTQVTVSS,low polyreactivity
16,QVQLVESGGGLVQAGGSLRLSCAASGSIFTGYAMGWYRQAPGKERELVAAISWSGGSTSYADSVKGRFTISLDKAKNDVYLQMNSLKPEDTAVYYCAAERKARTYGYWGQGTEVTVSS,high polyreactivity
17,QVQLVESGGGLVQAGGSLRLSCAASGSIFTHNAMGSYRQAPGKERELVAAISSGGSTNYADSVKGRFTISRDNAMNTVYLQMNSLKPDDTAVYYCAISIDGWYWRRRRYDYWGQGTQVTVSS,low polyreactivity
18,QVQLVESGGGLVQAGGSLRLSCAASGSIFTHNAMGWYRQAPGNERELVAAISSGGSTNYADSVKGRFTISRDNAKNTVYLQMNSLKPEDTAVYYCAKSIDGWYWRRRRYDYWGQGTQVTVSS,low polyreactivity
19,QVQLVESGGGLVQAGGSLRLSCAASGSIFTHYAMGWYRQAPGKERELVAAIARRGGSTYYADSVKGRFTISRDNAKNTVYLQMNSLKPEDTAVYYCAKSPDTAKEYDYWGQGTQVTVSS,high polyreactivity
20,QVQLVESGGGLVQAGGSLRLSCAASGSIFTINAMGWYRQAPGKERELVAAISFSGGRTYYADSVKGRFTISRDNAKNTVYLQMNSLKPEDTAVYYCAAPFYYYGVRFDYWGQGTQVTVSS,high polyreactivity
21,QVQLVESGGGLVQAGGSLRLSCAASGSIFTKYAMGWYRQAPGKERELVAAISQGGASTRYADSVKGRFTISRDNAKNTVYLQMNSLKPVDTADEYCAAKSRHFWMDYWGQGTQVTVSS,high polyreactivity

row,Sequence,polyreactivity (PSR sort gate)
1,QVQLVESGGGLVQAGGSLRLSCAASGSIFTLYAMGRYRQAPGKERELVAAITWSGGSSYYADSVKGRFTISRDNAKNTVYLQMNSLKPEDTAVYYCAKDYLAGGPWEGLVEREYDYWGQGTQVTVSS,low polyreactivity
2,QVQLVESGGGLVQAGGSLRLSCAASGSIFTLYAMGWYRQAPGKDRELVATINWSGGSTSYADSGKGRFTISRDNAKNTVYLQMNSLKPEETAVYYCARLGTYTVVTYDYWGQGTQVTVSS,low polyreactivity
3,QVQLVESGGGLVQAGGSLRLSCAASGSIFTLYAMGWYRQAPGKERELVAAITSGGRTYYADSVKGRFTISRDNAKNTVYLQMKSLKPEDTAVYYCNAVSRSWDFEYWGQGTQVTVSS,high polyreactivity
4,QVQLVESGGGLVQAGGSLRLSCAASGSIFTPNTMGWYRQAPGKEREFVAAITFSGGSTYYADSVKGRFTISRDNAKNTVYLQMNSLKPEDTAVYYCAAVYPTYDWYTPAYYYWGQGTQVTVSS,low polyreactivity
5,QVQLVESGGGLVQAGGSLRLSCAASGSIFTPYAMGWSRQAPGKERELVAVISWRVDSTYYADSVKGRFTISRDNAKNTVYLQMNSLKPEDTAVYYCAAKSYLLAPFGSGNRWSRYDYWGQGTQVTVSS,high polyreactivity
6,QVQLVESGGGLVQAGGSLRLSCAASGSIFTPYAMGWYRQAPGKERELVAVISWRVDSTYYADSVKGRFTISRDNAKNTVYLQMNSLKPEDTAVYYCAAKSYLLAPFGSGNRWSRYDYWGQGTQVTVSS,high polyreactivity
7,QVQLVESGGGLVQAGGSLRLSCAASGSIFTPYAMGWYRQEPGKERELVAAISRSGGSTYYADSVKGRFTISRDNAKNTVYLQMNSLKPEDTAVYYCAVVVYDIYGYESDYWGQGTQVTVSS,low polyreactivity
8,QVQLVESGGGLVQAGGSLRLSCAASGSIFTPYTMVWYRQAPGKERELVAAIRPNSGSTYYADSVKGRFTISRDNAKNTVYLQLNSLKPEDTAVYYCNAQCYGPGGGYFWSYDYWGQGTQVTVSS,low polyreactivity
9,QVQLVESGGGLVQAGGSLRLSCAASGSIFTRNAMGWYRQAPGKERELVAAITSGGRTYYADSVKGRFTISRDNAKNTVYLQMNSLKPEDTAVYYCNAYAWGWYDYWGQGTQVTVSS,high polyreactivity
10,QVQLVESGGGLVQAGGSLRLSCAASGSIFTRNAMGWYRQAPGKERELVASISWRGGSTYYADSVKGRFTISRDNAKNTVYLQMNSLKPEDTAVYYCNRRAYRNGYGFRDGTWEYDYWGQGTQVTVSS,high polyreactivity
11,QVQLVESGGGLVQAGGSLRLSCAASGSIFTRNAMGWYRQAPGKERELVATIRKNGASTTYADSVKGRFTISRDNAKNTVYLQMNSLKPEDTAVYYCARDHHTKYNYWGQGTQVTVSS,low polyreactivity
12,QVQLVESGGGLVQAGGSLRLSCAASGSIFTRNAMGWYRQAPGKERELVATITSNDGSTNYADSVKGRFTISRDNAKNTVYLQMNSLKPEDTAVYYCNRSYGVYSEFDYWGQGTQVTVSS,low polyreactivity
13,QVQLVESGGGLVQAGGSLRLSCAASGSIFTRNTMGWYRQAPGKERELVAAITSSGGSTYYADSVKGRFTISRDTAKNTVYLQMNSLKPEDTAVYYCAADVGVYYYSFYYWGQGTQVTVSS,high polyreactivity
14,QVQLVESGGGLVQAGGSLRLSCAASGSIFTRYAMGWYRQAPGKERELVAAISYRGDRTYYADSVKGRFTISRDNAKNTVYLQMNSLKPEDTAVYYCAATVQYSPIYDYWGQGTQVTVSS,high polyreactivity
15,QVQLVESGGGLVQAGGSLRLSCAASGSIFTRYAMGWYRQAPGKERELVAAITKSGSRTYYADSVKGRSTISRDNAKNTVYLQMNSLKPEDTAVYYCATLQGDSSSQYDYWGQGTQVTVSS,high polyreactivity
16,QVQLVESGGGLVQAGGSLRLSCAASGSIFTRYAMGWYRQAPGKERELVAVISVSGGRTYYADSVKGRFTISRDNAKNTVYLQMNSLKPEDTAVYYCAVGVLYAGYFYRYRYYYWGQGTQVTVSS,high polyreactivity
17,QVQLVESGGGLVQAGGSLRLSCAASGSIFTSYAVMGWYRQAPGKERELVAVITGGGITTYADSVKGRFTISRDNAKNTVYLQMNSLKPEDTAVYYCATDGWYHSEYDYWGQGTQVTVSS,low polyreactivity
18,QVQLVESGGGLVQAGGSLRLSCAASGSIFTSYGMGWYRQAPGKERELVAAITYSGDRTYYADSVKGRFTISRDNAKITVYFQMNSLIPEDTAVYYCNVAYVYGSFRRRPMGYWGQGTQVTVSS,high polyreactivity
19,QVQLVESGGGLVQAGGSLRLSCAASGSIFTTYTMGWYRQAPGKERELVAAITAGGGTTYYADSVKGRFTISRDNAKNTVYLQMNSLKPEDTAVYYCAAANSFYYIATGEYDYWGQGTQVTVSS,high polyreactivity
20,QVQLVESGGGLVQAGGSLRLSCAASGSIFTVNAMGWYRQAPGKEREFVAAITGGGTSTYYADSVKGRFTISRDNAKNTVYLQMNSLKPEDTAVYYCAATTYHYSPTYGYWGQGTQVTVSS,low polyreactivity
